{"source": "paper PMC11080051", "about": "“Melanoma-Derived DNA Polymerase Theta Variants Exhibit Altered DNA Polymerase Activity”", "assay_in_all_cases": "EMSA; 6 mM MgCl2; EMSA: 10 mM Tris-HCl pH 7.5, 6 mM MgCl2, 100 mM NaCl, 10% glycerol, 0.1% NP-40; 10 nM DNA, 0-1000 nM protein, 1 h at room temperature; 6% native PAGE", "conditions_in_all_cases": "protein: recombinant; tags: 6xHis-SUMO, cleaved off; label: 5'-6-FAM on primer; 22 bp; 5' overhang 18 nt on template; 5' overhang 3 nt (TTT) on primer", "key": {"[1]": {"target": "T1, DNA polymerase theta polymerase domain (PolQM1), WT (Homo sapiens, UniProt O75417 1792-2590)", "T1 sequence": "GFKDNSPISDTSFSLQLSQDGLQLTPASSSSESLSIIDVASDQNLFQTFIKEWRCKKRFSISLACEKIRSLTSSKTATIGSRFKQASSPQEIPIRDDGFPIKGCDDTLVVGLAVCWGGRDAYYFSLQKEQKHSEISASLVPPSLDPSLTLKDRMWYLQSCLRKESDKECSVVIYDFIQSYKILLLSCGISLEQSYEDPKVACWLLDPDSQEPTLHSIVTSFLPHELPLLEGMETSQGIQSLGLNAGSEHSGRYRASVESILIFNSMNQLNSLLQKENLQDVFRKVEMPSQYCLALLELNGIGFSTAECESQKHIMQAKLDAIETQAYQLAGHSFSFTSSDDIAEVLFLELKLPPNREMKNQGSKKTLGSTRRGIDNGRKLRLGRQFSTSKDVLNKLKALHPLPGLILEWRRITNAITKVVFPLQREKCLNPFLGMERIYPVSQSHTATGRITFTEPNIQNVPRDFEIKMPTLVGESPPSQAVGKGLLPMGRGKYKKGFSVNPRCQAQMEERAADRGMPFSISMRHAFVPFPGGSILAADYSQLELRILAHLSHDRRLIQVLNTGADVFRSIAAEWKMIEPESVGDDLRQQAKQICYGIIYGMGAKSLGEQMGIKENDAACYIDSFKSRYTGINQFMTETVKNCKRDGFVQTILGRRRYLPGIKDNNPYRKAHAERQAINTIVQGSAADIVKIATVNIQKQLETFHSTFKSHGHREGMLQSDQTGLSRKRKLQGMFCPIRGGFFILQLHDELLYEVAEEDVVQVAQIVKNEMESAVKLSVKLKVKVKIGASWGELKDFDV"}, "[2]": {"target": "T2, DNA polymerase theta polymerase domain (PolQM1), E2406K (Homo sapiens, UniProt O75417 1792-2590, E2406K)", "T2 sequence": "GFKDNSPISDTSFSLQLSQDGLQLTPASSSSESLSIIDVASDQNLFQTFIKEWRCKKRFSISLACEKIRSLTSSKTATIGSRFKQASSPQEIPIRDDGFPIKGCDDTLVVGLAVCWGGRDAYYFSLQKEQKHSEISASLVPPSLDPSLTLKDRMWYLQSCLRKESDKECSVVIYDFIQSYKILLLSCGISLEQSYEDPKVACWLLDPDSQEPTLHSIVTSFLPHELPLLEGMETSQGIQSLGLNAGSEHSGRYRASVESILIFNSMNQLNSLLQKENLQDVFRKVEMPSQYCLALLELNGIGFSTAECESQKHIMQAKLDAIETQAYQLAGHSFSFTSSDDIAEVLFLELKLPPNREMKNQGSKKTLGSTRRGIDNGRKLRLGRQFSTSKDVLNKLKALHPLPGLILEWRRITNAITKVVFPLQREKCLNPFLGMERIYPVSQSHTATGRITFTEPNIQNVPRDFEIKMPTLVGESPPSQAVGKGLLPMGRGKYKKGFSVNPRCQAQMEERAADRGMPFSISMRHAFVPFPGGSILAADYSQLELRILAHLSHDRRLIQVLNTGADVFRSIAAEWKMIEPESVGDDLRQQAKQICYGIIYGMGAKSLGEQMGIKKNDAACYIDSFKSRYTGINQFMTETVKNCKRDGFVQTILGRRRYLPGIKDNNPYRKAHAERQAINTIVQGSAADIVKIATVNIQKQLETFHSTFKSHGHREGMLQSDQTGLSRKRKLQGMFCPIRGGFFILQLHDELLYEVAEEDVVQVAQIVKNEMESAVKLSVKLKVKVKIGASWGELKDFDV"}, "[3]": {"target": "T3, DNA polymerase theta polymerase domain (PolQM1), T2161I (Homo sapiens, UniProt O75417 1792-2590, T2161I)", "T3 sequence": "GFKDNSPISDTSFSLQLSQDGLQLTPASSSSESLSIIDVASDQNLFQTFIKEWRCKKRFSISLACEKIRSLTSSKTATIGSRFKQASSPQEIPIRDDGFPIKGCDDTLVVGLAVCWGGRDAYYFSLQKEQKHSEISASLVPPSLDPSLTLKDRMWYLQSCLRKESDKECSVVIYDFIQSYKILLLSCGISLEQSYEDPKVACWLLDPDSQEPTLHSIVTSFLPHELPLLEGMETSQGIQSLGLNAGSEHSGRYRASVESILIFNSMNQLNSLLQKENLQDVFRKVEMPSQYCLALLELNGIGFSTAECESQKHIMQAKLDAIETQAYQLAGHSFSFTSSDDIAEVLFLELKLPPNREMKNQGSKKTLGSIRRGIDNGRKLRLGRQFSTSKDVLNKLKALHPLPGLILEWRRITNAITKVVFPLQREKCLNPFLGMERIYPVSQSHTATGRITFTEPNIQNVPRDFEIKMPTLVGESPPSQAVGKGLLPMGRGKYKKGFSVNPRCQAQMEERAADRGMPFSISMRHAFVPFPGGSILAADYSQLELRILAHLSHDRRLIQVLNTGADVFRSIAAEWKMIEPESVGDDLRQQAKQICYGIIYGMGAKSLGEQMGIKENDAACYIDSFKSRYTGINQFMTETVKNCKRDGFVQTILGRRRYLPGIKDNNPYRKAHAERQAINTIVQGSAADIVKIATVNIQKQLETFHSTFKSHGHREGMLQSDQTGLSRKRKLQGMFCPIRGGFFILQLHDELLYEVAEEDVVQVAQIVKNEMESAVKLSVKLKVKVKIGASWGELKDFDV"}, "[4]": {"target": "T4, DNA polymerase theta polymerase domain (PolQM1), L2538R (Homo sapiens, UniProt O75417 1792-2590, L2538R)", "T4 sequence": "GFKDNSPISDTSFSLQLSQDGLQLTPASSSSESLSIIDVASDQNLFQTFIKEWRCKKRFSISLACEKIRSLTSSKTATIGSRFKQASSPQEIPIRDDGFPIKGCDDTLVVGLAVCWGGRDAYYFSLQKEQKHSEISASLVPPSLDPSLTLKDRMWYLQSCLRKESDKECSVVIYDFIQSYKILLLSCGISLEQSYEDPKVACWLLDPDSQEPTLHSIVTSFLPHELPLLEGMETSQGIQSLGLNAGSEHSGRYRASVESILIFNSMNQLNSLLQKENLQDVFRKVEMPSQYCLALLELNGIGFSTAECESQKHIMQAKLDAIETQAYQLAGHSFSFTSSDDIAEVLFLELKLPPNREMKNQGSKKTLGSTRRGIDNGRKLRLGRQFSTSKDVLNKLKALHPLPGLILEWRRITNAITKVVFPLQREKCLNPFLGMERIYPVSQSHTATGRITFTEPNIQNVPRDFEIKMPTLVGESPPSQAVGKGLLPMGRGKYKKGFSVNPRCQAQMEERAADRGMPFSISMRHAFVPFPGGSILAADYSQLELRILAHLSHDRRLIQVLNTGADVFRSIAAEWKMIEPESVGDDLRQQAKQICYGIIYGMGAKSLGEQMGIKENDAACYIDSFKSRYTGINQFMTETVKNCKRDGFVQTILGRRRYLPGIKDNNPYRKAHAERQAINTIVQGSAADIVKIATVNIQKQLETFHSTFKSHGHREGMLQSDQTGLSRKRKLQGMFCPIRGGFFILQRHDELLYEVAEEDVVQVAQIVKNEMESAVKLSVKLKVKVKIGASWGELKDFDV"}}}
{"binder": "25/40 primer-template duplex (CG template) (dsDNA) DNA 1: TTTGCCTTGACCATGTAACAGAGAG DNA 2: TCTCTTCTCTCACTCACGCTCTCTGTTACATGGTCAAGGC", "values": [{"measurement": "Kd", "setting": "[1]", "value": "18 ± 3", "unit": "nM"}, {"measurement": "Kd", "setting": "[2]", "value": "14 ± 3", "unit": "nM"}, {"measurement": "Kd", "setting": "[3]", "value": "13 ± 3", "unit": "nM"}, {"measurement": "Kd", "setting": "[4]", "value": "18 ± 4", "unit": "nM"}]}
